Data on seven molecules can be found in US20210246166A1 (Bayer, published 2021).

Bridge positions count the residues as written; N and C are the ends. Ends that are not written are not given here.

B1: AIC+SRSLPPIC+IPD-NH2 (peptide)
peptide: AICSRSLPPICIPD-NH2
modifications: disulfide 3-11; N-terminus assumed
SMILES: CC[C@H](C)[C@H](NC(=O)[C@H](C)N)C(=O)N[C@H]1CSSC[C@@H](C(=O)N[C@H](C(=O)N2CCC[C@H]2C(=O)N[C@@H](CC(=O)O)C(N)=O)[C@@H](C)CC)NC(=O)[C@H]([C@@H](C)CC)NC(=O)[C@@H]2CCCN2C(=O)[C@@H]2CCCN2C(=O)[C@H](CC(C)C)NC(=O)[C@H](CO)NC(=O)[C@H](CCCNC(=N)N)NC(=O)[C@H](CO)NC1=O
B2: AIC+SRSLPPIC+IPD-OH (peptide)
peptide: AICSRSLPPICIPD-OH
modifications: disulfide 3-11; N-terminus assumed
SMILES: CC[C@H](C)[C@H](NC(=O)[C@H](C)N)C(=O)N[C@H]1CSSC[C@@H](C(=O)N[C@H](C(=O)N2CCC[C@H]2C(=O)N[C@@H](CC(=O)O)C(=O)O)[C@@H](C)CC)NC(=O)[C@H]([C@@H](C)CC)NC(=O)[C@@H]2CCCN2C(=O)[C@@H]2CCCN2C(=O)[C@H](CC(C)C)NC(=O)[C@H](CO)NC(=O)[C@H](CCCNC(=N)N)NC(=O)[C@H](CO)NC1=O
B3: GIC+SRSLPPIC+IPD-OH (peptide)
peptide: GICSRSLPPICIPD-OH
modifications: disulfide 3-11; N-terminus assumed
SMILES: CC[C@H](C)[C@H](NC(=O)CN)C(=O)N[C@H]1CSSC[C@@H](C(=O)N[C@H](C(=O)N2CCC[C@H]2C(=O)N[C@@H](CC(=O)O)C(=O)O)[C@@H](C)CC)NC(=O)[C@H]([C@@H](C)CC)NC(=O)[C@@H]2CCCN2C(=O)[C@@H]2CCCN2C(=O)[C@H](CC(C)C)NC(=O)[C@H](CO)NC(=O)[C@H](CCCNC(=N)N)NC(=O)[C@H](CO)NC1=O

Recombinant rat MASP2 enzyme (fragment corresponding to amino acids 296-685, C-terminal His Tag), sequence (Q9JJS8 other isoform, or with tags, fused parts or gaps limits assumed): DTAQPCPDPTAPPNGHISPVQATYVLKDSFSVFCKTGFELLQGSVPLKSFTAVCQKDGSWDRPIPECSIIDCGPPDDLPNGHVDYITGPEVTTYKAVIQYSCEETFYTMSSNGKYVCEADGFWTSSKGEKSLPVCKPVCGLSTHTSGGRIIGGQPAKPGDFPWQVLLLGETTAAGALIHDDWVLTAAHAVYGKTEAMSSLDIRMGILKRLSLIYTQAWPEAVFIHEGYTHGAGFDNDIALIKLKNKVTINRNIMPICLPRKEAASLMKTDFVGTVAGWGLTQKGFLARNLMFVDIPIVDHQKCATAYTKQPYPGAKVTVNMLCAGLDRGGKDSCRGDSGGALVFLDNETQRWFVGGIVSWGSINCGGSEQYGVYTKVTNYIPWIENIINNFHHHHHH

One assay addresses Recombinant rat MASP2 enzyme (fragment corresponding to amino acids 296-685, C-terminal His Tag) (rat, UniProt Q9JJS8 296-685). As to the kind of experiment: cell-based or functional assay.
For B1, the “rat MASP2 IC50” value stood at 54.2 nM.

For B2, the “rat MASP2 IC50” value worked out at 68.4 nM.

For B3, the “rat MASP2 IC50” value came out at 68 nM.

The target of another assay is T1, Recombinant rat MASP1 enzyme (fragment corresponding to amino acids 302-704, C-terminal His Tag) (rat, UniProt Q8CHN8 302-704).
T1 sequence: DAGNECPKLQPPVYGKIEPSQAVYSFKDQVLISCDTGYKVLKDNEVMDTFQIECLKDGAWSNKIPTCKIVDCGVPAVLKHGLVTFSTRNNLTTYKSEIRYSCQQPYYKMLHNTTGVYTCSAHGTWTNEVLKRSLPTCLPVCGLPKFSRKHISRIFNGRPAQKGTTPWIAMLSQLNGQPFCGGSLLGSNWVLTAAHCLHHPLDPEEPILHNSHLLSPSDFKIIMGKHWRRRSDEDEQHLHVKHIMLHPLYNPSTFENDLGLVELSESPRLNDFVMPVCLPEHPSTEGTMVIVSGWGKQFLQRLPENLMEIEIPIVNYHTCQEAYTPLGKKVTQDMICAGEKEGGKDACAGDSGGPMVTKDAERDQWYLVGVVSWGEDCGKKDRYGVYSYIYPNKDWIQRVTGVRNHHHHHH
As to the kind of experiment: cell-based or functional assay.
Consider AICSRSLPPICIPD-NH2 (disulfide 3-11; also: HCl salt) [AIC+SRSLPPIC+IPD-NH2 (HCl Salt)], for which the “rat MASP1 IC50” value turned out to be 210 nM.

Regarding B1, the “rat MASP1 IC50” value is 83.4 nM.

Turning to B2, the “rat MASP1 IC50” value worked out at 50.2 nM.

In the case of B3, the “rat MASP1 IC50” value turned out to be 68.6 nM.

Another assay deals with Recombinant human MASP2 active protease (amino acids 297-686, C-terminal His Tag) (human, UniProt O00187 297-686). As to the kind of experiment: cell-based or functional assay.
Recombinant human MASP2 active protease (amino acids 297-686, C-terminal His Tag), sequence (O00187 other isoform, or with tags, fused parts or gaps limits assumed): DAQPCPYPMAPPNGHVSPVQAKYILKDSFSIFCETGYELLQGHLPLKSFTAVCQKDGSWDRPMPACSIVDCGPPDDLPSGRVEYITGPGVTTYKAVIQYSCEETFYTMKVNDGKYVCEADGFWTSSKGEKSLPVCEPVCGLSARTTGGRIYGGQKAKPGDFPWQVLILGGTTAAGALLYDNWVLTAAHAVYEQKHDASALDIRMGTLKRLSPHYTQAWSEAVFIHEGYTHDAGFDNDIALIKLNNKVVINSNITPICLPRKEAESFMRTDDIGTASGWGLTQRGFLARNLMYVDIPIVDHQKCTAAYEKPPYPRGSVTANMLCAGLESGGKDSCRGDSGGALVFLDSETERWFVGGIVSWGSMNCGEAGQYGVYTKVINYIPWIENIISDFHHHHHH
With GICSRSLPPICIPD-NH2 (disulfide 3-11; also: TFA salt) [SFMI-1 amide, GIC+SRSLPPIC+IPD-NH2 (Reference No 3)], the “human MASP2 IC50 (FRET substrate cleavage, enzyme activity)” value (“human MASP2 IC50” for short) was 610 nM.

Regarding AICSRSLPPICIPD-OH (disulfide 3-11; also: TFA salt) [Ala-1 SFMI-1, AIC+SRSLPPIC+IPD-OH (Reference No A)], the “human MASP2 IC50” value amounted to 914 nM.

For the molecule GICSRSLPPICIPD-OH (disulfide 3-11; also: HCl salt) [SFMI-1 HCl, GIC+SRSLPPIC+IPD-OH (HCl Salt) (Reference No 2)], the “human MASP2 IC50” value worked out at 610 nM.

The next assay concerns the target T2, Recombinant human MASP1 active protease (amino acids 297-699, C-terminal His Tag) (human, UniProt P48740 297-699).
T2 sequence: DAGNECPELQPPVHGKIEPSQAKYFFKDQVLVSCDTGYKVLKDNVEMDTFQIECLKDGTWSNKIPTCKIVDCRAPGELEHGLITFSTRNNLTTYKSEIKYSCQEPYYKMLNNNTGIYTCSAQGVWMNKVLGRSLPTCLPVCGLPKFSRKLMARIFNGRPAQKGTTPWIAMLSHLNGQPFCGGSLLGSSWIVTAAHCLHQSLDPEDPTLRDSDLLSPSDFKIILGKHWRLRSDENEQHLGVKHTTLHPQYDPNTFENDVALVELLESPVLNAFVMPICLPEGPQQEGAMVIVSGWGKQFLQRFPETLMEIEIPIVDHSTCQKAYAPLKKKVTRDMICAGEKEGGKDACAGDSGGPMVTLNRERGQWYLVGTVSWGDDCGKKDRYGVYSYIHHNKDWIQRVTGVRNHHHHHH
As to the kind of experiment: cell-based or functional assay.
As to GICSRSLPPICIPD-NH2 (disulfide 3-11; also: TFA salt) [SFMI-1 amide, GIC+SRSLPPIC+IPD-NH2 (Reference No 3)], the “human MASP1 IC50 (FRET substrate cleavage, enzyme activity)” value (shortened to “human MASP1 IC50”) was determined as 18 nM.

Regarding AICSRSLPPICIPD-OH (disulfide 3-11; also: TFA salt) [Ala-1 SFMI-1, AIC+SRSLPPIC+IPD-OH (Reference No A)], the “human MASP1 IC50” value was 7.45 nM.

Take GICSRSLPPICIPD-OH (disulfide 3-11; also: HCl salt) [SFMI-1 HCl, GIC+SRSLPPIC+IPD-OH (HCl Salt) (Reference No 2)]: the “human MASP1 IC50” value was determined as 18 nM.
